The values that follow come from patent publication US20190322746A1 (TESARO, published 2019).

The target in the test is T1, T Cell Immunoglobulin and Mucin Domain-3 (TIM-3) on circulating CD14+ monocytes of patients (human, UniProt Q8TDQ0 22-301).
T1 construct: whole, on cells; Endogenous receptor on peripheral blood monocytes of patients in a first-in-human study; also called HAVCR2; TIM-3 receptor
Nature of the test: flow cytometry receptor occupancy on circulating monocytes, whole blood of treated patients.

Experimental: To measure binding in the RO assay, whole blood was collected from patients at baseline (Day 1 predose), 48 hours following the first dose (Day 3) and prior to the second dose (Day 15 predose) for the Q2W schedule. […] Samples for occupancy measurement on the Q3W schedule were collected as follows: Day 1 predose, Day 5, Day 15 and Day 22.
All samples were pre-dose, with occupancy measured after a single dose on day 1. The occupancy ratio (free TIM-3:total TIM-3) is determined at various time points (for example, timepoints can include day 1, day 3, day 15, day 22, and day 29).

B1: TSR-022 (antibody, human IgG4 S228P, kappa, V domains shown)
VH: EVQLLESGGGLVQPGGSLRLSCAAASGFTFSSYDMSWVRQAPGKGLDWVSTISGGGTYTYYQDSVKGRFTISRDNSKNTLYLQMNSLRAEDTAVYYCASMDYWGQGTTVTVSS
VL: DIQMTQSPSSLSASVGDRVTITCRASQSIRRYLNWYHQKPGKAPKLLIYGASTLQSGVPSRFSGSGSGTDFTLTISSLQPEDFAVYYCQQSHSAPLTFGGGTKVEIKR
notes: Humanized IgG4 (human IGHG4*01 scaffold) with a kappa light chain (IGKC*01); also called anti-TIM-3 antibody; exemplary anti-TIM-3 antibody
Regarding B1, the binding result is on record as “binds”.
